Source: patent US20230002480A1

Legend:
Experiment in all cases: cell-based or functional assay
[1] = molecular target: HIV-1 Env of pseudovirus CNE30 (HIV-1)
[2] = molecular target: HIV-1 Env of pseudovirus WITO4160.33 (HIV-1)
[3] = molecular target: HIV-1 Env of pseudovirus 620345.c01 (HIV-1)
[4] = molecular target: HIV-1 Env of pseudovirus 246F C1G (HIV-1)
[5] = molecular target: HIV-1 Env of pseudovirus T255-34 (HIV-1)
[6] = molecular target: HIV-1 Env of pseudovirus 0260.v5.c36 (HIV-1)
[7] = molecular target: HIV-1 Env of pseudovirus C2101.c01 (HIV-1)
[8] = molecular target: HIV-1 Env of pseudovirus 9004SS_A3_4 (HIV-1)
[9] = molecular target: HIV-1 Env of pseudovirus Ce1172_H1 (HIV-1)
[10] = molecular target: HIV-1 Env of pseudovirus ZM109F.PB4 (HIV-1)
[11] = molecular target: HIV-1 Env of pseudovirus X1193_c1 (HIV-1)
[12] = molecular target: HIV-1 Env of pseudovirus CNE8 (HIV-1)
[13] = molecular target: HIV-1 Env of pseudovirus BF1266.431a (HIV-1)
[14] = molecular target: HIV-1 Env of pseudovirus SC422661.8 (HIV-1)
[15] = molecular target: HIV-1 Env of pseudovirus CAP45.2.00.G3 (HIV-1)
[16] = molecular target: HIV-1 Env of pseudovirus CNE58 (HIV-1)
[17] = molecular target: HIV-1 Env of pseudovirus C3347.c11 (HIV-1)
[18] = molecular target: HIV-1 Env of pseudovirus 1394C9G1(Rev-) (HIV-1)
[19] = molecular target: HIV-1 Env of pseudovirus RHPA4259.7 (HIV-1)
[20] = molecular target: HIV-1 Env of pseudovirus HIV-001428-2.42 (HIV-1)
[21] = molecular target: HIV-1 Env of pseudovirus HIV-16055-2.3 (HIV-1)
[22] = molecular target: HIV-1 Env of pseudovirus 6244_13_B5_4576 (HIV-1)
[23] = molecular target: HIV-1 Env of pseudovirus Q769.d22 (HIV-1)
[24] = molecular target: HIV-1 Env of pseudovirus Ce0393_C3 (HIV-1)
[25] = molecular target: HIV-1 Env of pseudovirus 6240_08_TA5_4622 (HIV-1)
[26] = molecular target: HIV-1 Env of pseudovirus BJOX025000.01.1 (HIV-1)
[27] = molecular target: HIV-1 Env of pseudovirus CAP210.2.00.E8 (HIV-1)
[28] = molecular target: HIV-1 Env of pseudovirus CAAN5342.A2 (HIV-1)
[29] = molecular target: HIV-1 Env of pseudovirus 211-9 (HIV-1)
[30] = molecular target: HIV-1 Env of pseudovirus THRO4156.18 (HIV-1)
[31] = molecular target: HIV-1 Env of pseudovirus 6535.3 (HIV-1)
[32] = molecular target: HIV-1 Env of pseudovirus 191955_A11 (HIV-1)

## N49P7 (antibody)
[1]
  neutralization IC50: 0.18 µg/mL
  neutralization IC80: 0.609 µg/mL
  neutralization MPI: 100
[2]
  neutralization IC50: 0.084 µg/mL
  neutralization IC80: 0.248 µg/mL
  neutralization MPI: 100
[3]
  neutralization IC50: 23.2 µg/mL
  neutralization IC80: 47.9 µg/mL
  neutralization MPI: 82
[4]
  neutralization IC50: 0.094 µg/mL
  neutralization IC80: 0.255 µg/mL
  neutralization MPI: 100
[5]
  neutralization IC50: 0.053 µg/mL
  neutralization IC80: 0.262 µg/mL
  neutralization MPI: 100
[6]
  neutralization IC50: 0.354 µg/mL
  neutralization IC80: 0.884 µg/mL
  neutralization MPI: 100
[7]
  neutralization IC50: 0.06 µg/mL
  neutralization IC80: 0.34 µg/mL
  neutralization MPI: 100
[8]
  neutralization IC50: 0.125 µg/mL
  neutralization IC80: 0.39 µg/mL
  neutralization MPI: 100
[9]
  neutralization IC50: 8.5 µg/mL
  neutralization IC80: 37.5 µg/mL
  neutralization MPI: 92
[10]
  neutralization IC50: 0.034 µg/mL
  neutralization IC80: 0.153 µg/mL
  neutralization MPI: 100
[11]
  neutralization IC50: 0.016 µg/mL
  neutralization IC80: 0.06 µg/mL
  neutralization MPI: 100
[12]
  neutralization IC50: 0.037 µg/mL
  neutralization IC80: 0.125 µg/mL
  neutralization MPI: 100
[13]
  neutralization IC50: 0.057 µg/mL
  neutralization IC80: 0.199 µg/mL
  neutralization MPI: 100
[14]
  neutralization IC50: 0.114 µg/mL
  neutralization IC80: 0.32 µg/mL
  neutralization MPI: 100
[15]
  neutralization IC50: 0.06 µg/mL
  neutralization IC80: 0.29 µg/mL
  neutralization MPI: 100
[16]
  neutralization IC50: 0.029 µg/mL
  neutralization IC80: 0.067 µg/mL
  neutralization MPI: 100
[17]
  neutralization IC50: 0.024 µg/mL
  neutralization IC80: 0.067 µg/mL
  neutralization MPI: 100
[18]
  neutralization IC50: 3.84 µg/mL
  neutralization IC80: 21.1 µg/mL
  neutralization MPI: 94
[19]
  neutralization IC50: 0.083 µg/mL
  neutralization IC80: 0.246 µg/mL
  neutralization MPI: 100
[20]
  neutralization IC50: 0.006 µg/mL
  neutralization IC80: 0.02 µg/mL
  neutralization MPI: 100
[21]
  neutralization IC50: 0.057 µg/mL
  neutralization IC80: 0.28 µg/mL
  neutralization MPI: 100
[22]
  neutralization IC50: 0.111 µg/mL
  neutralization IC80: 0.386 µg/mL
  neutralization MPI: 100
[23]
  neutralization IC50: 0.025 µg/mL
  neutralization IC80: 0.111 µg/mL
  neutralization MPI: 100
[24]
  neutralization IC50: 0.195 µg/mL
  neutralization IC80: 0.802 µg/mL
  neutralization MPI: 100
[25]
  neutralization IC50: 0.457 µg/mL
  neutralization IC80: 1.73 µg/mL
  neutralization MPI: 100
[26]
  neutralization IC50: 0.038 µg/mL
  neutralization IC80: 0.236 µg/mL
  neutralization MPI: 100
[27]
  neutralization IC50: 1.82 µg/mL
  neutralization IC80: 6.49 µg/mL
  neutralization MPI: 100
[28]
  neutralization IC50: 0.409 µg/mL
  neutralization IC80: 1.21 µg/mL
  neutralization MPI: 100
[29]
  neutralization IC50: 0.22 µg/mL
  neutralization IC80: 0.767 µg/mL
  neutralization MPI: 100
[30]
  neutralization IC50: 2.34 µg/mL
  neutralization IC80: 12.4 µg/mL
  neutralization MPI: 99
[31]
  neutralization IC50: 0.186 µg/mL
  neutralization IC80: 0.598 µg/mL
  neutralization MPI: 100
[32]
  neutralization IC50: 1.81 µg/mL
  neutralization IC80: 8.87 µg/mL
  neutralization MPI: 99

## N49P7.1 (antibody)
[1]
  neutralization IC50: 0.307 µg/mL
  neutralization IC80: 1.01 µg/mL
  neutralization MPI: 100
[2]
  neutralization IC50: 0.121 µg/mL
  neutralization IC80: 0.326 µg/mL
  neutralization MPI: 100
[3]
  neutralization IC50: > 50 µg/mL
  neutralization IC80: > 50 µg/mL
  neutralization MPI: 47
[4]
  neutralization IC50: 0.049 µg/mL
  neutralization IC80: 0.165 µg/mL
  neutralization MPI: 100
[5]
  neutralization IC50: 0.094 µg/mL
  neutralization IC80: 0.447 µg/mL
  neutralization MPI: 100
[6]
  neutralization IC50: 0.497 µg/mL
  neutralization IC80: 1.51 µg/mL
  neutralization MPI: 100
[7]
  neutralization IC50: 0.076 µg/mL
  neutralization IC80: 0.425 µg/mL
  neutralization MPI: 100
[8]
  neutralization IC50: 0.221 µg/mL
  neutralization IC80: 0.841 µg/mL
  neutralization MPI: 100
[9]
  neutralization IC50: 17.1 µg/mL
  neutralization IC80: > 50 µg/mL
  neutralization MPI: 78
[10]
  neutralization IC50: 0.055 µg/mL
  neutralization IC80: 0.199 µg/mL
  neutralization MPI: 100
[11]
  neutralization IC50: 0.035 µg/mL
  neutralization IC80: 0.144 µg/mL
  neutralization MPI: 100
[12]
  neutralization IC50: 0.048 µg/mL
  neutralization IC80: 0.167 µg/mL
  neutralization MPI: 100
[13]
  neutralization IC50: 0.033 µg/mL
  neutralization IC80: 0.11 µg/mL
  neutralization MPI: 100
[14]
  neutralization IC50: 0.125 µg/mL
  neutralization IC80: 0.417 µg/mL
  neutralization MPI: 100
[15]
  neutralization IC50: 0.086 µg/mL
  neutralization IC80: 0.567 µg/mL
  neutralization MPI: 100
[16]
  neutralization IC50: 0.049 µg/mL
  neutralization IC80: 0.107 µg/mL
  neutralization MPI: 100
[17]
  neutralization IC50: 0.048 µg/mL
  neutralization IC80: 0.161 µg/mL
  neutralization MPI: 100
[18]
  neutralization IC50: 4.37 µg/mL
  neutralization IC80: 30.9 µg/mL
  neutralization MPI: 88
[19]
  neutralization IC50: 0.108 µg/mL
  neutralization IC80: 0.292 µg/mL
  neutralization MPI: 100
[20]
  neutralization IC50: 0.009 µg/mL
  neutralization IC80: 0.029 µg/mL
  neutralization MPI: 100
[21]
  neutralization IC50: 0.088 µg/mL
  neutralization IC80: 0.318 µg/mL
  neutralization MPI: 100
[22]
  neutralization IC50: 0.184 µg/mL
  neutralization IC80: 0.493 µg/mL
  neutralization MPI: 100
[23]
  neutralization IC50: 0.044 µg/mL
  neutralization IC80: 0.163 µg/mL
  neutralization MPI: 100
[24]
  neutralization IC50: 0.23 µg/mL
  neutralization IC80: 1.02 µg/mL
  neutralization MPI: 100
[25]
  neutralization IC50: 0.509 µg/mL
  neutralization IC80: 1.95 µg/mL
  neutralization MPI: 100
[26]
  neutralization IC50: 0.057 µg/mL
  neutralization IC80: 0.378 µg/mL
  neutralization MPI: 100
[27]
  neutralization IC50: 2.03 µg/mL
  neutralization IC80: 7.3 µg/mL
  neutralization MPI: 99
[28]
  neutralization IC50: 0.55 µg/mL
  neutralization IC80: 1.59 µg/mL
  neutralization MPI: 100
[29]
  neutralization IC50: 0.34 µg/mL
  neutralization IC80: 1.17 µg/mL
  neutralization MPI: 100
[30]
  neutralization IC50: 3.07 µg/mL
  neutralization IC80: 12.6 µg/mL
  neutralization MPI: 98
[31]
  neutralization IC50: 0.224 µg/mL
  neutralization IC80: 0.715 µg/mL
  neutralization MPI: 100
[32]
  neutralization IC50: 1.99 µg/mL
  neutralization IC80: 10.1 µg/mL
  neutralization MPI: 98
